Test results from article PMC6509496, “Crystal structure of the TreS:Pep2 complex, initiating α-glucan synthesis in the GlgE pathway of mycobacteria” (The Journal of Biological Chemistry, 2019).

System: T1, Nc1ncnc2c1ncn2[C@@H]1O[C@H](COP(=O)(O)OP(=O)(O)OP(=O)(O)O)[C@@H](O)[C@H]1O
T1 construct: full length (441 residues), N-terminal His6 tag (pET28a), E. coli BL21(DE3); monomer
Assay: coupled pyruvate kinase / lactate dehydrogenase assay, NADH depletion
Assay type: biochemical, Mycolicibacterium smegmatis
Details: 20 mM maltose, 10 mM MgCl2, 50 mM sodium phosphate pH 7.5, 300 mM NaCl, 10% glycerol, no TreS
Excerpt: coupled pyruvate kinase / lactate dehydrogenase assay, NADH depletion on Msm Pep2 (M. smegmatis maltokinase, MsPep2)

## Msm Pep2 (M. smegmatis maltokinase, MsPep2) (Mycolicibacterium smegmatis MC2 155)
  Km: 76 ± 7 µM
